These results are taken from patent publication US20030083294, “Modulators of pharmacological agents” (published 2003).

This series deals with coagulation factor IXa (FIXa) (Homo sapiens, UniProt P00740;P00740 P00740:47-191,P00740:227-461). The series is described as follows: KD comparable to 9.3t.

B1: 9.20t (ssRNA)
RNA: AUGGGGACUAUACCGGCAAUCGUGCAUCCCCAU
modifications: 2'-F pyrimidines, 2'-OH purines
Take B1: the binding result is recorded as “binds”.
